From patent publication US20080227698A1, “OLIGOPEPTIDES FOR TREATMENT OF OSTEOPOROSIS AND OTHER BONE DISEASES AND METHODS THEREOF” (Washington University, priority 2005, published 2008)

Key:
ST-2 cells = assay: Alkaline phosphatase activity in ST-2 cells infected with DKK1 retrovirus; type: cell-based; conditions: increasing amounts of oligopeptide; non-transfected cells approximately 0.14 units, DKK1-infected cells about 0.02 units
From the text: Osteoblasts are cells which build bone. One marker for osteoblast activity is the cell surface enzyme alkaline phosphatase (AP). ST-2 cells are an osteoblast-derived cell line which provides an in vitro model system for studying osteoblast activity. […] Treatment of the transfected cells with increasing amounts of a Mesd oligopeptide having sequence

LRP6 = LRP6 (Homo sapiens, UniProt O75581); assay: ^125I-Mesd binding to LRP6, competition by Mesd or oligopeptide (FIG. 10C); design: plasmid pCS-Myc-hLRP6 containing the full-length human LRP6 cDNA; HA; expressed in transfected cells; host or cells: human HT1080 cells, stably transduced (pLNCX2 retroviral vector); conditions: compared with LRP5 (up to about 10-fold)
Method: (§1) In order to investigate the binding of Mesd polypeptide and an Mesd oligopeptide to either LRP5 or LRP6, binding assays were performed using ^125I-Mesd or ^125I-DKK1 (FIG. 10).

LRP5 = LRP5 (Homo sapiens, UniProt O75197); assay: ^125I-DKK1 binding to LRP5, competition by Mesd or oligopeptide (FIG. 10B)
Method: as §1

[1] = target: T1, LRP6 on LRP6-transduced HT1080 cells (HA-tagged) (UniProt O75581 20-1613, limits assumed); assay: Scatchard analysis of 125I-Mesd saturation binding to LRP6-transduced HT1080 cells, 3 h at 4 C
T1 construct: whole, on cells; also called mature LRP6; cell surface LRP6
From the text: (C) Scatchard plots of data in B. All values are the average of triple determinations with the s.d. indicated by error bars.

[2] = target: T1, LRP6 on LRP6-transduced HT1080 cells …; assay: competition against 125I-DKK1 for LRP6 (FIG. 10D)
[3] = target: T2, human apoER2 on stably transfected LRP-null CHO cells (human, UniProt Q14114 33-963); assay: 125I-Mesd binding to stably transfected LRP-null CHO cells, 4 h at 4 C, with or without 500 nM Mesd
T2 construct: whole, on cells
T2 sequence (looked up): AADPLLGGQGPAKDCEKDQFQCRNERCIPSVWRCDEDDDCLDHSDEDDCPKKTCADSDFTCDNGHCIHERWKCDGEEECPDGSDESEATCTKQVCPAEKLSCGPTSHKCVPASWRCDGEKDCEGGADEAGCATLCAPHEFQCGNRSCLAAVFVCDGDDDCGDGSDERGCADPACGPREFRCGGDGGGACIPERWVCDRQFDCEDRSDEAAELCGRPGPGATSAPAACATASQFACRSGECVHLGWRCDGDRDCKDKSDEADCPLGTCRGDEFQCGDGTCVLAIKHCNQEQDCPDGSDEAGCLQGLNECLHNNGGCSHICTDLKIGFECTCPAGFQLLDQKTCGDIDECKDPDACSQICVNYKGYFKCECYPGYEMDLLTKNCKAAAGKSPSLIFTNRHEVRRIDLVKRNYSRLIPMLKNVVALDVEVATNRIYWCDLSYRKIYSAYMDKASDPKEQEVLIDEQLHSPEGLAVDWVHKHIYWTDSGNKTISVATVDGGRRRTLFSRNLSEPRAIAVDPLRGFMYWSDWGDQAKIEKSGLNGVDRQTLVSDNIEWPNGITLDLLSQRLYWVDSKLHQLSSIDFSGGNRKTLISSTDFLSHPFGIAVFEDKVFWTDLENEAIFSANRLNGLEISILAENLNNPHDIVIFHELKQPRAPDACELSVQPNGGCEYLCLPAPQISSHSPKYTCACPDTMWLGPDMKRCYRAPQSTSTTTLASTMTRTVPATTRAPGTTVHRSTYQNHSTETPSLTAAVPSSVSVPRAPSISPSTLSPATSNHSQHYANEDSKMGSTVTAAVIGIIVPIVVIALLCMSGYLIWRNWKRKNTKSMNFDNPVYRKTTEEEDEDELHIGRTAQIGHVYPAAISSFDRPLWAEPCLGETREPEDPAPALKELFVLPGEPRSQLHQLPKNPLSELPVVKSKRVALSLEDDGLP

[4] = target: T3, human VLDLR on stably transfected LRP-null CHO cells (human, UniProt P98155 28-873); assay: as above
T3 construct: whole, on cells

[5] = target: T4, human Myc-tagged LRP5 on transiently transfected HEK293 cells (human, UniProt O75197 32-1615); assay: competition against 125I-Mesd for LRP5 (FIG. 10A)
T4 construct: whole, on cells; also called mature LRP5; pcDNA3.1C-Myc-hLRP5

[6] = target: T1, LRP6 on LRP6-transduced HT1080 cells …; assay: binding of truncated Mesd mutants to cell surface LRP6 (FIG. 3B)

T1 sequence (O75581 20-1613 limits assumed): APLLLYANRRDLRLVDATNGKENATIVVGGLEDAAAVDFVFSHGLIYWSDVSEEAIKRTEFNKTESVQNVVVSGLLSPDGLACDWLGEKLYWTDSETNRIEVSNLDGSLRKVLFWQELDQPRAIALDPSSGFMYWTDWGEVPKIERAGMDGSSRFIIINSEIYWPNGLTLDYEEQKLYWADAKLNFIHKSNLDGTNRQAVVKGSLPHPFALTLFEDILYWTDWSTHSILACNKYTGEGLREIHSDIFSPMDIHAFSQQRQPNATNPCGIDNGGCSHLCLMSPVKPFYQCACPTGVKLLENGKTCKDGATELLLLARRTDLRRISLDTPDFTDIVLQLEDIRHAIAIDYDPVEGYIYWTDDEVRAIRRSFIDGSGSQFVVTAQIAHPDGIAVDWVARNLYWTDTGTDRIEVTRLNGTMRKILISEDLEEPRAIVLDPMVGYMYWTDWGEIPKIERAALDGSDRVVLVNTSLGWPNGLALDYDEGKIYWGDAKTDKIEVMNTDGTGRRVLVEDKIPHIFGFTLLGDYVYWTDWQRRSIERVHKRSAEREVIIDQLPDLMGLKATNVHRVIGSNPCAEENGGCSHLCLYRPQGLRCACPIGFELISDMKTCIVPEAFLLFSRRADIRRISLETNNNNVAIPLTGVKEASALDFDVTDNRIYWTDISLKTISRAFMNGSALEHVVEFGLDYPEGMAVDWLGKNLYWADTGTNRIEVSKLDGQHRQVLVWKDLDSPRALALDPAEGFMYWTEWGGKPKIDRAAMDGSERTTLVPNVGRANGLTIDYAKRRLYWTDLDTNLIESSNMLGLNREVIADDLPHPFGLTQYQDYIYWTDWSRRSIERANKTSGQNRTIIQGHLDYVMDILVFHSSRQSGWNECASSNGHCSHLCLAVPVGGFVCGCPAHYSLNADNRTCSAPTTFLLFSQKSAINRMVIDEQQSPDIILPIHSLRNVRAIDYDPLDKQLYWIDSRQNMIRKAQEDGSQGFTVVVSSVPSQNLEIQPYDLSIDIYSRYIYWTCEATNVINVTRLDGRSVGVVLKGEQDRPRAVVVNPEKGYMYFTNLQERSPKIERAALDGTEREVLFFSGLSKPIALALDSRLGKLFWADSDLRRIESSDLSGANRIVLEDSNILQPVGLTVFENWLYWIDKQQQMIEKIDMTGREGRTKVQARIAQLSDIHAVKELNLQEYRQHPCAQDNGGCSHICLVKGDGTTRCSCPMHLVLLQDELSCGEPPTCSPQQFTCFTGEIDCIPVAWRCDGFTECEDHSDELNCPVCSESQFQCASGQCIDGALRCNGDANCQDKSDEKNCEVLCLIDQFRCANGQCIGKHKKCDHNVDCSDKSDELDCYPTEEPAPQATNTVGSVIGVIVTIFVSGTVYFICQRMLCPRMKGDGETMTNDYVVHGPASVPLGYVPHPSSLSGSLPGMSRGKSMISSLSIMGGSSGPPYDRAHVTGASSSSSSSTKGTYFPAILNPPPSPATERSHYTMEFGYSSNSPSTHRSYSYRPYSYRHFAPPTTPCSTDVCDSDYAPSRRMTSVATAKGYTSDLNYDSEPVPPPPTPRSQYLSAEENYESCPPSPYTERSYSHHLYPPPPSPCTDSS
Sequence of LRP6 (O75581 20-1613): as the sequence (O75581 20-1613 limits assumed) above
Sequence of LRP5 (O75197 32-1615): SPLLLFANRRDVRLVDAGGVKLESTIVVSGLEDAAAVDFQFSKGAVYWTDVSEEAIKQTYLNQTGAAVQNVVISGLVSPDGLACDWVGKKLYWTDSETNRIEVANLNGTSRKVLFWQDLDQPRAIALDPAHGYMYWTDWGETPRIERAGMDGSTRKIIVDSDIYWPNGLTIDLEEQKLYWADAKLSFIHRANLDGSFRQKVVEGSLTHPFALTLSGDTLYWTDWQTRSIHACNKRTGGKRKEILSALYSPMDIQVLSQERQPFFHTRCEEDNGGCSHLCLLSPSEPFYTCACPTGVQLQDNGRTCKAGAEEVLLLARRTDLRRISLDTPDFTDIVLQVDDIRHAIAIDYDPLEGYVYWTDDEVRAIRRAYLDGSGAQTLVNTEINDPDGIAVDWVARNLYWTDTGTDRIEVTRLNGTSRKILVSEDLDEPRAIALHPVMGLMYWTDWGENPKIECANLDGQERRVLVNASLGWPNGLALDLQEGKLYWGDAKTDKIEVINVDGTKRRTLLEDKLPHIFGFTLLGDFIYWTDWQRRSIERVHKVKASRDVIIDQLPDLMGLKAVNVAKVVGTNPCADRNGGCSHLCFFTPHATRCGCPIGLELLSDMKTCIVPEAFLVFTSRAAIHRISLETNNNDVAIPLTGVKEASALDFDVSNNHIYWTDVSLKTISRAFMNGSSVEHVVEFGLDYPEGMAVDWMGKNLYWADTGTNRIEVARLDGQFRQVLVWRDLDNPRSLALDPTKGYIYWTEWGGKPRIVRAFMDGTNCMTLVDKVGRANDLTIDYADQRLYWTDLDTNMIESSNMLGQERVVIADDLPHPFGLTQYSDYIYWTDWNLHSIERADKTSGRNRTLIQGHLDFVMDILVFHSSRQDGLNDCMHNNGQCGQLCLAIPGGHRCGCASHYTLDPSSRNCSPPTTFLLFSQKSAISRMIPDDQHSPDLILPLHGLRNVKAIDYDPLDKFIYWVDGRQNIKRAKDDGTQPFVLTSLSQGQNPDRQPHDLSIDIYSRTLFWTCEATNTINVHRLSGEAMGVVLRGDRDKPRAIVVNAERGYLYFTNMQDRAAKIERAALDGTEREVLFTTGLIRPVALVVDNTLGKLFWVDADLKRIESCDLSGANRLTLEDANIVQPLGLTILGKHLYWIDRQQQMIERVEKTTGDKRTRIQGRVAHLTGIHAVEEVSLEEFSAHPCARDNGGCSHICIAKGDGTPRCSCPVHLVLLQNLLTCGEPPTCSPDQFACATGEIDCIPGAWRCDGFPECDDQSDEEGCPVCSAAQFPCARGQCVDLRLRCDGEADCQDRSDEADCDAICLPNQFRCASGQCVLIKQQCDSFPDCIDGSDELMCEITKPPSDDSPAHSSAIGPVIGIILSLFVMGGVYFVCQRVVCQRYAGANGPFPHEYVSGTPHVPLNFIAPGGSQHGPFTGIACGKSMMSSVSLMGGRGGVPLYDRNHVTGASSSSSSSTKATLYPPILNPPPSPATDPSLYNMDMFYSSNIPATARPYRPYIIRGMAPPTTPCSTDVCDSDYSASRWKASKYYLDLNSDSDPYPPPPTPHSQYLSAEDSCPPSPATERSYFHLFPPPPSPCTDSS
T4 sequence (O75197 32-1615): as above

Molecule: KGGGSKEKNKTKPEKAKKKEGDPKPRASKEDNRAGSR [SEQ ID NO: 20]
- Alkaline phosphatase (AP) activity (ST-2 cells): increasing levels of AP activity
- Reduction of binding of ^125I-Mesd to LRP6 (LRP6): even greater reduction
- Reduction in binding of ^125I-DKK1 to LRP5 (LRP5): small but significant reduction

B1: recombinant mouse Mesd protein (wild type) (other, not shown: small tags and cut ends)
chain: ADTPGEATPPPRKKKDIRDYNDADMARLLEQWEKDDDIEEGDLPEHKRPSAPIDFSKLDPGKPESILKMTKKGKTLMMFVTVSGNPTEKETEEITSLWQGSLFNANYDVQRFIVGSDRAIFMLRDGSYAWEIKDFLVSQDRCAEVTLEGQMYPGKGGGSKEKNKTKPEKAKKKEGDRKPRASKEDNRAGSRREDL
modifications: 125I-iodinated (IODO-GEN) when used as radioligand
notes: Made in E. coli from full-length mouse Mesd cDNA; also called wild type Mesd
- Kd [1]: ~3.3 nM
- fold reduction of ^125I-DKK1 binding [2]: > 2 fold
- binding result [3]: no binding (tested: 5 nM 125I-Mesd)
- binding result [4]: no binding (tested: 5 nM 125I-Mesd)
- fold reduction of ^125I-Mesd binding [5]: ~10 fold

B2: Mesd(12-155) (other, not shown: small tags and cut ends)
chain: RKKKDIRDYNDADMARLLEQWEKDDDIEEGDLPEHKRPSAPIDFSKLDPGKPESILKMTKKGKTLMMFVTVSGNPTEKETEEITSLWQGSLFNANYDVQRFIVGSDRAIFMLRDGSYAWEIKDFLVSQDRCAEVTLEGQMYPGK
modifications: 125I-iodinated when used as radioligand
notes: also called truncated Mesd mutant lacking both the N-terminal and C-terminal regions
- binding result [6]: no binding
